Experimental data as given in patent US20080045697A1.

Experiments:
complement C3b [1] = molecular target: complement C3b (UniProt P01024); experiment: cell-based or functional assay
complement C3b [2] = molecular target: complement C3b (UniProt P01024); experiment: competition ELISA: CRIg protein against CRIg-LFH on plate-coated C3b, anti-FLAG detection

Substance	fold increase of IC50 compared to wt CRIg (complement C3b [2])	also measured
CRIg (soluble, construct not stated) (from UniProt Q9Y279 20-189) (receptor)		inhibition of C5b-9 deposition through the alternative pathway (LPS-coated plate, C1q deficient serum) (complement C3b [1]): 1.49 µM
CRIg mutant A (E85A M86A) (from UniProt Q9Y279 20-399) (receptor)	> 10000 fold	
CRIg mutant B (H57A Q59A) (from UniProt Q9Y279 20-399) (receptor)	100 fold	
CRIg-Fc (from UniProt Q9Y279 20-283) (Fc fusion)		inhibition of hemolysis of rabbit erythrocytes in C1q deficient serum (alternative pathway) (complement C3b [1]): 127 nM
